For this assay, the target named is human CD40 protein (human, UniProt P25942 21-193, limits assumed). The experiment in a line: ELISA screening of hybridoma wells against human CD40 protein. How it is done: Antibodies were created by electrofusion of human CD40-immunized mouse splenocytes (Balb/c strain) with SP2/0-A14 cells (ATCC) (Immunization procedure; dose, adjuvants, time course). Fused cells were seeded into 96-well plates and ELISA screening was conducted to identify wells that contain antibodies which interact with the human CD40 protein. Positive wells were further expanded and followed a limited dilution to isolate monoclonal hybridomas. Purified antibodies were used to test their ability to trigger CD40 signaling by an in-house created reporter system. Basically, an engineered 293T cell line was transduced to stably express the human CD40 protein. When testing the agonistic functions of CD40 antibodies, DNA plasmids of an NF-kB-driven luciferase reporter and Fc-gamma receptors were transiently transfected into established CD40-293T cells. Antibodies to be tested were added to the culture and incubated for 24 hours. Treated cells were harvested, lysed and analyzed on a plate reader for the activity of luciferase. Anti-human CD40 mAb clone #1E10-H2 and clone #2G9-B11 were tested binding to and activating human CD40. The sequences of the IgG heavy chain and light chain variable domains of anti-human CD40 agonistic mAb clone #1E10-H2 are shown in FIG. 1.
Sequence of human CD40 protein (P25942 21-193 limits assumed): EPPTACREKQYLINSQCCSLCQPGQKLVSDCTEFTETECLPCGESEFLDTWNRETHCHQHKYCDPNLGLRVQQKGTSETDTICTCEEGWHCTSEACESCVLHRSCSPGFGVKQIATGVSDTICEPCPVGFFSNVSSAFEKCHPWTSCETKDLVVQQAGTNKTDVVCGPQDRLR
On the technique in general: ELISA stands for enzyme-linked immunosorbent assay.

B1: Anti-human CD40 mAb clone #2G9-B11 (antibody, mouse IgG1, V domains shown)
VH: EVQLVESGGGLVKPGGSLKLSCAASGFSFSSYAMSWVRQTPEKRLEWVATISSGGDYTYYPDSVKGRFTISRDNAKNTLYLQMTSLRSEDTAMYYCARRNHFTYWGQGTLVTVSA
VL: DIVMTQSHKFMSTSVGDRVSITCKASQDVVTSVAWYQQKPGQSPKLLIYWTSTRHTGVPDRFTGSGSGTDFTLTISNVQSEDLADYFCQQYSSYPLTFGAGTKLELK
notes: Mouse hybridoma monoclonal antibody (Balb/c), purified; also called anti-CD40 2G9-B11
Turning to B1, the binding result is “binds”.

B2: Anti-human CD40 mAb clone #1E10-H2 (antibody, V domains shown)
VH: QVQLQQSGAELMKPGASVKISCKATGYTFSSYWIEWIKQRPGHVLEWIGEILPGSGSANYNERFKGKATFTADTSSNTAYMQLTSLTSEDSAVYYCARLRYYGSSPWFAYWGQGTLVTVSA
VL: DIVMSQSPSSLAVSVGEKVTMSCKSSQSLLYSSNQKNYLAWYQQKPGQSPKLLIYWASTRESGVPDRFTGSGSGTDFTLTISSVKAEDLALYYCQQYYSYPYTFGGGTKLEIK
notes: Mouse hybridoma monoclonal antibody (Balb/c), purified; also called anti-human CD40 agonistic mAb (clone #1E10-H2)
In the case of B2, the binding result is “binds”.

The values are drawn from patent US20210115149A1 (ABVISION, published 2021).
